ChEMBL document CHEMBL1137932, “Synthesis of S-alkyl L-homocysteine analogues of glutathione and their kinetic studies with gamma-glutamyl transpeptidase” (Bioorg Med Chem Lett, 2004)

Assays:
[1] = tested on: N[C@@H](CCS(=O)(=O)CCC(=O)NCC(=O)O)C(=O)O; assay: (§1) Michaelis-Menten constant for Gamma-glutamyltranspeptidase in rat kidney
[2] = tested on: NC(CC[S+]([O-])CCC(=O)NCC(=O)O)C(=O)O; assay: as §1

Chain of Glutathione hydrolase 1 proenzyme (Rattus norvegicus), P07314 (P07314 whole entry): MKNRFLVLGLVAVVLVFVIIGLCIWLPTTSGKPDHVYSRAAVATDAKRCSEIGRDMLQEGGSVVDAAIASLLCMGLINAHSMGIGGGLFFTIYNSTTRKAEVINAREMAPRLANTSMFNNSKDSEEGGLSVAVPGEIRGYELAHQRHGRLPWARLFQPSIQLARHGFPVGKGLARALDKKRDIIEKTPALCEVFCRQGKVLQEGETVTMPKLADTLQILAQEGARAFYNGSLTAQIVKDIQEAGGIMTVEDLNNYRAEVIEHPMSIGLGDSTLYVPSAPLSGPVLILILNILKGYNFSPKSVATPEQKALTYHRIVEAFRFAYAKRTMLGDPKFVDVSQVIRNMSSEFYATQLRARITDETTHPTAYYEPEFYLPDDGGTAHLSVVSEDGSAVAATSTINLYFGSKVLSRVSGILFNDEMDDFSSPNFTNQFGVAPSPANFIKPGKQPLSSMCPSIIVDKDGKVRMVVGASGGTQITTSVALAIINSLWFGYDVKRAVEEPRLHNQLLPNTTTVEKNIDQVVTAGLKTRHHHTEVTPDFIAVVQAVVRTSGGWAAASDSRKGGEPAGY

“Glutathione hydrolase 1 proenzyme (Rattus norvegicus), P07314” was tested, and the Km [1] was 590 µM and the Km [2] was 500 µM.
